# B1: LkCSE (Larix kaempferi) (protein)
# chain: MSAVEKPAAPPNFWGEMPEEEYYASQGVKNHQERFETPHGILFTQSWIPIEGPVKGIVCMTHGYGSDTGWLFQKISITYAQWGYAVFGADLLGHGRSDGLRCYMGDMEKIAAASLFFFKAMRDSEPYKGLPAFLFGESMGGATTLLMYFQDPDGWSGLIFSAPLFVMPEPMKPSWWRLTAYGLLFGLADTWAVMPDNKMVKKAIKDPEKLKIIASNPRRYTGPPRVGTMRELCRICAFFQENFEKVTIPFLTCHGTSDEVTAPQSSTDLYEKAKSEDKTLKLYDDMYHSLIQGEPDENANQVLADMREWLDARASRTSS
# Substrate: O=C(/C=C/c1ccc(O)c(O)c1)O[C@@H]1CC(C(=O)O)=C[C@@H](O)[C@H]1O
# Assay: HPLC-MS of caffeic acid formed, Michaelis-Menten fit
# Assay type: biochemical, Larix kaempferi
# Settings: 100 mM NaPO4 buffer pH 6.0, 500 μM dithiothreitol, 0–320 μM substrate, 1 μg enzyme in 100 μL, temperature of kinetics not given
protein,measurement,value
B1,Km,82.08 µM
